Source: article PMC2193694 (The Journal of Experimental Medicine, 2002)

Assays:
[1] = molecular target: B7-H2mIg (extracellular domain of human B7-H2 linked to mouse IgG2a Fc portion) (human) (UniProt O75144); test: ELISA
[2] = molecular target: T1, B7-H2mIg (extracellular domain of human B7-H2 linked to mouse IgG2a Fc portion) (human, UniProt O75144 19-256); test: ELISA
T1 sequence: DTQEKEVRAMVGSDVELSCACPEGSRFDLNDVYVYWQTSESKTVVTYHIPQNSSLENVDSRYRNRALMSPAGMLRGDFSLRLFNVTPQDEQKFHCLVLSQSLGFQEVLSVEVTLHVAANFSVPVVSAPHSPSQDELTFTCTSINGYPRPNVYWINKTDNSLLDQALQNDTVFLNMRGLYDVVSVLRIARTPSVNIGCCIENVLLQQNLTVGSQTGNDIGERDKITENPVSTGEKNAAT

ICOSIg mutant P117S (from UniProt Q9Y6W8 21-140) (Fc fusion)
percentage of B7-H2 binding activity (of ICOSIg) [1]: < 0.1%

B1: ICOSIg (extracellular domain of human ICOS fused to the CH2-CH3 portion of human IgG1) (Fc fusion)
chain: EINGSANYEMFIFHNGGVQILCKYPDIVQQFKMQLLKGGQILCDLTKTKGSGNTVSIKSLKFCHSQLSNNSVSFFLYNLDHSHANYYFCNLSIFDPPPFKVTLTGGYLHIYESQLCCQLK
percentage of B7-H2 binding activity (of ICOSIg) [2]: 100%

B2: ICOSIg homologue replacement mutant RP49-52 (ICOS 49-52 replaced by CD28 49-52) (Fc fusion)
chain: EINGSANYEMFIFHNGGVQILCKYPDIVREFRMQLLKGGQILCDLTKTKGSGNTVSIKSLKFCHSQLSNNSVSFFLYNLDHSHANYYFCNLSIFDPPPFKVTLTGGYLHIYESQLCCQLK
percentage of B7-H2 binding activity (of ICOSIg) [2]: 9%

B3: ICOSIg mutant D64S (Fc fusion)
chain: EINGSANYEMFIFHNGGVQILCKYPDIVQQFKMQLLKGGQILCSLTKTKGSGNTVSIKSLKFCHSQLSNNSVSFFLYNLDHSHANYYFCNLSIFDPPPFKVTLTGGYLHIYESQLCCQLK
percentage of B7-H2 binding activity (of ICOSIg) [2]: 6%

B4: ICOSIg mutant D115S (Fc fusion)
chain: EINGSANYEMFIFHNGGVQILCKYPDIVQQFKMQLLKGGQILCDLTKTKGSGNTVSIKSLKFCHSQLSNNSVSFFLYNLDHSHANYYFCNLSIFSPPPFKVTLTGGYLHIYESQLCCQLK
percentage of B7-H2 binding activity (of ICOSIg) [2]: < 0.1%

B5: ICOSIg mutant F51S (Fc fusion)
chain: EINGSANYEMFIFHNGGVQILCKYPDIVQQSKMQLLKGGQILCDLTKTKGSGNTVSIKSLKFCHSQLSNNSVSFFLYNLDHSHANYYFCNLSIFDPPPFKVTLTGGYLHIYESQLCCQLK
percentage of B7-H2 binding activity (of ICOSIg) [2]: < 0.1%

B6: ICOSIg mutant F114S (Fc fusion)
chain: EINGSANYEMFIFHNGGVQILCKYPDIVQQFKMQLLKGGQILCDLTKTKGSGNTVSIKSLKFCHSQLSNNSVSFFLYNLDHSHANYYFCNLSISDPPPFKVTLTGGYLHIYESQLCCQLK
percentage of B7-H2 binding activity (of ICOSIg) [2]: < 0.1%

B7: ICOSIg mutant F119S (Fc fusion)
chain: EINGSANYEMFIFHNGGVQILCKYPDIVQQFKMQLLKGGQILCDLTKTKGSGNTVSIKSLKFCHSQLSNNSVSFFLYNLDHSHANYYFCNLSIFDPPPSKVTLTGGYLHIYESQLCCQLK
percentage of B7-H2 binding activity (of ICOSIg) [2]: < 0.1%

B8: ICOSIg mutant K67S (Fc fusion)
chain: EINGSANYEMFIFHNGGVQILCKYPDIVQQFKMQLLKGGQILCDLTSTKGSGNTVSIKSLKFCHSQLSNNSVSFFLYNLDHSHANYYFCNLSIFDPPPFKVTLTGGYLHIYESQLCCQLK
percentage of B7-H2 binding activity (of ICOSIg) [2]: < 0.1%

B9: ICOSIg mutant K69S (Fc fusion)
chain: EINGSANYEMFIFHNGGVQILCKYPDIVQQFKMQLLKGGQILCDLTKTSGSGNTVSIKSLKFCHSQLSNNSVSFFLYNLDHSHANYYFCNLSIFDPPPFKVTLTGGYLHIYESQLCCQLK
percentage of B7-H2 binding activity (of ICOSIg) [2]: 3%

B10: ICOSIg mutant Q49S (Fc fusion)
chain: EINGSANYEMFIFHNGGVQILCKYPDIVSQFKMQLLKGGQILCDLTKTKGSGNTVSIKSLKFCHSQLSNNSVSFFLYNLDHSHANYYFCNLSIFDPPPFKVTLTGGYLHIYESQLCCQLK
percentage of B7-H2 binding activity (of ICOSIg) [2]: 33%

B11: ICOSIg mutant Q50S (Fc fusion)
chain: EINGSANYEMFIFHNGGVQILCKYPDIVQSFKMQLLKGGQILCDLTKTKGSGNTVSIKSLKFCHSQLSNNSVSFFLYNLDHSHANYYFCNLSIFDPPPFKVTLTGGYLHIYESQLCCQLK
percentage of B7-H2 binding activity (of ICOSIg) [2]: 6%
